Assay results as given in publication PMC6200926 (The Journal of Biological Chemistry, 2018).

Tests used:
[1] = target: T1, A/Beijing/01/2003 HA globular head (Asp-55–Glu-271) (Influenza A virus A/Beijing/01/2003 …, UniProt A5YTS6, strain); assay: cell-based or functional assay
[2] = target: T2, A/Anhui/1/2005 HA globular head (Asp-55–Glu-271) (Influenza A virus A/Anhui/1/2005 (H5N1), UniProt Q1WDM0, strain); assay: cell-based or functional assay
[3] = target: T1, A/Beijing/01/2003 HA globular head …; assay: SPR; details: both partners purified
[4] = target: T2, A/Anhui/1/2005 HA globular head …; assay: SPR; details: both partners purified
[5] = target: T3, A/Vietnam/1203/2004 HA globular head (Asp-55–Glu-271) (Influenza A virus A/Vietnam/1203/2004 …, UniProt Q5EP31, strain); assay: cell-based or functional assay
[6] = target: T4, A/Thailand/1(KAN-1)/2004 HA globular head (Asp-55–Glu-271) (Influenza A virus …, strain); assay: cell-based or functional assay
[7] = target: A/Turkey/65596/2006 HA globular head (Asp-55–Glu-271) (Influenza A virus A/Turkey/65596/2006 …, strain); assay: cell-based or functional assay
[8] = target: T3, A/Vietnam/1203/2004 HA globular head …; assay: SPR; details: both partners purified
[9] = target: T4, A/Thailand/1(KAN-1)/2004 HA globular …; assay: SPR; details: both partners purified

B1: AVFluIgG03 (antibody, V domains shown)
VH: EVQLLESGGGLVQPGGSLRVSCTNSGFTFSNYAMSWVRQAPGKGLEWVSAISGNGGSGTYYADSVKGRFTISRDNSKNTMYLQMNSLRAEDTAVYYCVRDDSYDGGGHYGLHNWFDSWGQGTLVTVSS
VL: SVLTQPPSVSGAPGQRVTISCTGSSSNIGAGYDVHWYQQLPGTAPKLLIYGNSNRPSGVPDRFSGSKSGTSASLAITGLQAEDEADYYCQSYDSSVVVFGGGTKLEIK
- neutralisation IC50, pseudovirus with the whole HA of this strain [1]: 3 ng/mL
- neutralisation IC50, pseudovirus with the whole HA of this strain [2]: 2 ng/mL

B2: AVFluIgG03 Fab (Fab, V domains shown)
VH: EVQLLESGGGLVQPGGSLRVSCTNSGFTFSNYAMSWVRQAPGKGLEWVSAISGNGGSGTYYADSVKGRFTISRDNSKNTMYLQMNSLRAEDTAVYYCVRDDSYDGGGHYGLHNWFDSWGQGTLVTVSS
VL: SVLTQPPSVSGAPGQRVTISCTGSSSNIGAGYDVHWYQQLPGTAPKLLIYGNSNRPSGVPDRFSGSKSGTSASLAITGLQAEDEADYYCQSYDSSVVVFGGGTKLEIK
notes: source: cut from the purified IgG with Lys-C
- Kd [3]: 25 nM
- Kd [4]: 12.6 nM

B3: FLD21.140 (antibody, V domains shown)
VH: QVQLQESGPGLVKPSQTLSLTCTVSGGSISSGTYYWSWIRHHPGKGLEWIGYIYHSGSAYYNPSLESRVTMSVDTSKNQFSLKLSSVTAADTAIYYCARAENLLSPYLAEGFDPWGQGTLVTVSS
VL: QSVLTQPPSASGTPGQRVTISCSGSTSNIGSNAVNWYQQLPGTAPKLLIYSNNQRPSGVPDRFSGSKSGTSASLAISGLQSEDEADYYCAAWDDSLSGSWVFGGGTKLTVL
- neutralisation IC50, pseudovirus with the whole HA of this strain [5]: 1 ng/mL
- neutralisation IC50, pseudovirus with the whole HA of this strain [6]: 8 ng/mL
- neutralisation IC50, pseudovirus with the whole HA of this strain [7]: 1 ng/mL

B4: FLD21.140 Fab (Fab, V domains shown)
VH: QVQLQESGPGLVKPSQTLSLTCTVSGGSISSGTYYWSWIRHHPGKGLEWIGYIYHSGSAYYNPSLESRVTMSVDTSKNQFSLKLSSVTAADTAIYYCARAENLLSPYLAEGFDPWGQGTLVTVSS
VL: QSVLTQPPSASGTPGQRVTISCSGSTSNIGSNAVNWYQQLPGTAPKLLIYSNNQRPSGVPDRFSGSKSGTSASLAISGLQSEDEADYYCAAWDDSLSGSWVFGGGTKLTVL
- Kd [8]: 0.702 nM
- Kd [9]: 1 nM
